Experimental data taken from patent US20190112362A1 (published 2019).
Where a chain is given by its changes, count along the chain named.

B1: hu37D3.v28.A4 (antibody, V domains shown)
VH: EVQLVESGGGLVQPGGSLRLSCAASGLIFRSYGMSWVRQAPGKGLEWVATINSGGTYTYYPDSVKGRFTISRDNSKNTLYLQMNSLRAEDTAVYYCANSYSGAMDYWGQGTLVTVSS
VL: DDVLTQTPLSLPVTPGQPASISCRSSQSIVHSNGNTYLEWYLQKPGQSPQLLIYKVSNRFSGVPDRFSGSGSGTDFTLKISRVEAEDVGVYYCFQGSLVPWTFGQGTKVEIK
notes: also called hu37D3-H9.v28.A4
B2: hu37D3-H9.v5 (antibody, V domains shown)
VH: B1 VH
VL: B1 VL with D1E, L38F
notes: Kappa2 framework
B3: hu37D3-H9.v1 (antibody, V domains shown)
VH: B1 VH
VL: EDQLTQSPSSLSASVGDRVTITCRSSQSIVHSNGNTYFEWYQQKPGKSPKLLIYKVSNRFSGVPSRFSGSGSGTDFTLTISSLQPEDFATYYCFQGSLVPWTFGQGTKVEIK
notes: Kappa1 framework

Target: Monomeric cynomolgus monkey Tau (cynomolgus monkey, UniProt P57786 2-459 (rhesus entry))
Sequence (P57786 other isoform, or with tags, fused parts or gaps limits assumed, form in doubt): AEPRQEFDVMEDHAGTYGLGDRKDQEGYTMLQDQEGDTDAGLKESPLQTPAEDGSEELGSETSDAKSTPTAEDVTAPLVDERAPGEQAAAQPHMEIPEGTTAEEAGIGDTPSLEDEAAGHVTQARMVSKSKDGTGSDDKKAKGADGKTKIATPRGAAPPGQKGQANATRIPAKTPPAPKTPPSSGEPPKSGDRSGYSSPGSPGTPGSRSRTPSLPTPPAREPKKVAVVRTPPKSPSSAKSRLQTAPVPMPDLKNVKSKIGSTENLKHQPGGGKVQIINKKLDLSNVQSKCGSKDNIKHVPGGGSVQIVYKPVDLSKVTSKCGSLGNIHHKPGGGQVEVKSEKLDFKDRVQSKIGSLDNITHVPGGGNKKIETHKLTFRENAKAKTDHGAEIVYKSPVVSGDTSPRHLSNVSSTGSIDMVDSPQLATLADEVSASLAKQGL
Assay: SPR, hIgG captured, cynomolgus Tau monomer analyte, 1:1 model

Row | Binder | Kd | koff | kon
1 | B1 | 0.7 nM | 0.001 s⁻¹ | 1.7e+06 M⁻¹ s⁻¹
2 | B2 | 0.6 nM | 0.001 s⁻¹ | 1.5e+06 M⁻¹ s⁻¹
3 | B3 | 0.8 nM | – | 2e+06 M⁻¹ s⁻¹
